Biological target: T1, Myc-tagged Mst1 (UniProt Q13043 1-487)
T1 sequence (looked up): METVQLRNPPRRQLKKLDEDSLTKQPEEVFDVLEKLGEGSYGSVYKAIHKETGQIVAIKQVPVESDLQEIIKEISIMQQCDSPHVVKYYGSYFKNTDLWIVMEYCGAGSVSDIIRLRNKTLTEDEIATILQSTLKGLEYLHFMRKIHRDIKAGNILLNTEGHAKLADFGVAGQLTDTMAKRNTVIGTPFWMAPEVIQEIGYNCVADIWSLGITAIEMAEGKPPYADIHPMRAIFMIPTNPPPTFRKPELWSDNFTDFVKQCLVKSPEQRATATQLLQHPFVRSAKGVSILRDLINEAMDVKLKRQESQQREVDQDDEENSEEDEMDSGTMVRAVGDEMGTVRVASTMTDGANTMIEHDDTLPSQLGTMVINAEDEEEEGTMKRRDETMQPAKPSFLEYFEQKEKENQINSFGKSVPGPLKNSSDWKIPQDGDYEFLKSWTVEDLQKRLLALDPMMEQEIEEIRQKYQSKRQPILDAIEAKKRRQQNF
Test: cell-based or functional assay

B1: FLAG-tagged GAPDH (enzyme)
chain: not shown
  in vitro kinase assay of Mst1 immunoprecipitated from HEK293T cells transfected with Myc-Mst1 with or without Flag-GAPDH: Mst1 autophosphorylation and MBP phosphorylation, increase with GAPDH: ~2 fold

— paper PMC3604124, “Glyceraldehyde-3-Phosphate Dehydrogenase Interacts with Proapoptotic Kinase Mst1 to Promote Cardiomyocyte Apoptosis” (PLoS ONE, 2013)
